Where two headings read alike, the source gives them in different places.
Columns and labels:
CCL18_HUMAN = molecular target: T1, CCL18_HUMAN (human, UniProt P55774 21-89); experiment: yeast surface display FACS
T1 sequence: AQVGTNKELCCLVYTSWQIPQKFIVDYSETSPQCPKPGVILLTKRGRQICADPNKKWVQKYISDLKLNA

CCL5_HUMAN [1] = molecular target: T2, CCL5_HUMAN (human, UniProt P13501 24-91); experiment: yeast surface display FACS
T2 sequence: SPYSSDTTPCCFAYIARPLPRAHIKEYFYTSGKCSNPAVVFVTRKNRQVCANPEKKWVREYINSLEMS

CCL11_HUMAN = CCL11_HUMAN (human, UniProt P51671 24-97); experiment: yeast surface display FACS
Chain of CCL11_HUMAN (P51671 24-97 limits assumed): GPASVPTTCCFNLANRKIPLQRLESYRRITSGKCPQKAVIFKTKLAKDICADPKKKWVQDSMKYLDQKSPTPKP

CXCL12_HUMAN = CXCL12_HUMAN (human, UniProt P48061 22-89); experiment: yeast surface display FACS
Chain of CXCL12_HUMAN (P48061 22-89 limits assumed): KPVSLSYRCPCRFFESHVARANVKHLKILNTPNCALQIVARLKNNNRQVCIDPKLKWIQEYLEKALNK

CCL16_HUMAN = molecular target: T3, CCL16_HUMAN (human, UniProt O15467 24-120); experiment: BLI;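 note: biolayer interferometry on an Octet system: chemokines at several doses tested against tick chemokine-binding proteins, association, equilibrium and dissociation curves fitted to derive Kd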
T3 sequence: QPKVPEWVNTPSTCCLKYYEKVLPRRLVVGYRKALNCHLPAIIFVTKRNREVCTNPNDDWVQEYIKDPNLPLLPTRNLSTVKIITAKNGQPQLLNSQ

P1156_IXORI [2] = molecular target: T4, P1156_IXORI (Ixodes ricinus, UniProt V5HBW0 29-108); experiment: BLI [Cont.) C]
T4 sequence: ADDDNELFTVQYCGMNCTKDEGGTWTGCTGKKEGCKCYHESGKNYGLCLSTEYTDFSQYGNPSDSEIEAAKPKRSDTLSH

P1229_IXORI = molecular target: T5, P1229_IXORI (Ixodes ricinus, UniProt A0A0K8R4R9 32-108); experiment: BLI [Cont.]
T5 sequence: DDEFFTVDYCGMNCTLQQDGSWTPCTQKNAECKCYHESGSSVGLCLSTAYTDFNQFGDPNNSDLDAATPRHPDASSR

P1096_IXORI [3] = molecular target: T6, P1096_IXORI (Ixodes ricinus, UniProt A0A0K8RKE4 24-114); experiment: BLI [Cont.]
T6 sequence: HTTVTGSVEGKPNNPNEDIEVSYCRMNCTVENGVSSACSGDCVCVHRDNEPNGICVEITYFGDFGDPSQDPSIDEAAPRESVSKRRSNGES

P1172_IXORI = molecular target: T7, P1172_IXORI (Ixodes ricinus, UniProt V5I2G9 24-94); experiment: BLI [Cont.]
T7 sequence: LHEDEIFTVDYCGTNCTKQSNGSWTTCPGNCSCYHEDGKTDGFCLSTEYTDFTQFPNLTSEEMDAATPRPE

P1127_IXORI [4] = molecular target: T8, P1127_IXORI (Ixodes ricinus, UniProt A0A0K8RJ67 29-108); experiment: BLI [Cont.]
T8 sequence: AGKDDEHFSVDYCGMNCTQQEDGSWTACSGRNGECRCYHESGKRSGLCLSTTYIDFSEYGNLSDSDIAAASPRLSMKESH

P1132_IXORI [5] = molecular target: T9, P1132_IXORI (Ixodes ricinus, UniProt V5GZ08 29-106); experiment: BLI [Cont.]
T9 sequence: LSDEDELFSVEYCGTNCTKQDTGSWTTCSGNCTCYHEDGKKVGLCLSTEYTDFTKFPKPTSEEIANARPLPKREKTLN

P1166_IXORI [6] = molecular target: T10, P1166_IXORI (Ixodes ricinus, UniProt A0A0K8RE99 25-110); experiment: BLI [Cont.]
T10 sequence: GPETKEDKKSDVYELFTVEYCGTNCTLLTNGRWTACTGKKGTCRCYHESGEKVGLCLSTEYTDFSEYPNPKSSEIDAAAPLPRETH

P1170_IXORI = molecular target: T11, P1170_IXORI (Ixodes ricinus, UniProt A0A0K8RD51 29-102); experiment: BLI [Cont.]
T11 sequence: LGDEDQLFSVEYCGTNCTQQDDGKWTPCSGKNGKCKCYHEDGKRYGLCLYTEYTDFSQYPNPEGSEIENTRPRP

P1134_IXORI [7] = molecular target: T12, P1134_IXORI (Ixodes ricinus, UniProt A0A0K8RAI0 32-135); experiment: BLI [Cont.]
T12 sequence: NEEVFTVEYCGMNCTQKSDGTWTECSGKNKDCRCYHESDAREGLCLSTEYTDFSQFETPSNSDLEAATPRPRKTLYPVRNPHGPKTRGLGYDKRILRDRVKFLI

P1095_IXORI [8] = molecular target: T13, P1095_IXORI (Ixodes ricinus, UniProt A0A0K8RCE3 24-112); experiment: BLI [Cont.]
T13 sequence: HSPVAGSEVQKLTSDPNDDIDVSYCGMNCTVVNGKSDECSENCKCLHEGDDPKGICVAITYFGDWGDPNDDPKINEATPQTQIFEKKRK

P1080_IXORI [9] = molecular target: T14, P1080_IXORI (Ixodes ricinus, UniProt A0A090XBL6 20-118); experiment: BLI [Cont.]
T14 sequence (A0A090XBL6 20-118): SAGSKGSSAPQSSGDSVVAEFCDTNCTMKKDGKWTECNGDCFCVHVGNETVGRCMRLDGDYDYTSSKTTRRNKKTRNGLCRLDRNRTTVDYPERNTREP

P1174_IXORI = molecular target: T15, P1174_IXORI (Ixodes ricinus, UniProt V5I3C5 28-104); experiment: BLI [Cont.]
T15 sequence: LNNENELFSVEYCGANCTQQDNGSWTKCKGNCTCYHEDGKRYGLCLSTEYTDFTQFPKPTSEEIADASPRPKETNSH

P1168_IXORI [10] = molecular target: T16, P1168_IXORI (Ixodes ricinus, UniProt A0A0K8RCU3 25-106); experiment: BLI [Cont.]
T16 sequence: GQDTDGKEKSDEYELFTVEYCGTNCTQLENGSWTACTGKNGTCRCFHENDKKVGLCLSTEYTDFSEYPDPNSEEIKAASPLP

P1162_IXORI = molecular target: T17, P1162_IXORI (Ixodes ricinus, UniProt A0A0K8RDJ1 29-99); experiment: BLI [Cont.]
T17 sequence: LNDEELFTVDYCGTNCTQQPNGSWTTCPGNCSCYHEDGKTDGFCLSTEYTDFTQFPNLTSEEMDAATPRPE

P1128_IXORI = molecular target: T18, P1128_IXORI (Ixodes ricinus, UniProt A0A0K8R6B3 19-90); experiment: BLI [Cont.]
T18 sequence: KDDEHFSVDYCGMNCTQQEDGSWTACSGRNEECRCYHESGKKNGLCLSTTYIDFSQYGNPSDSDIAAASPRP

CCL20_HUMAN = CCL20_HUMAN (human, UniProt P78556 27-96); experiment: yeast surface display FACS
Chain of CCL20_HUMAN (P78556 27-96 limits assumed): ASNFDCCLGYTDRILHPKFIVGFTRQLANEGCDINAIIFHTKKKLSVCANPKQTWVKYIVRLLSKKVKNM

CXCL8_HUMAN = molecular target: T19, CXCL8_HUMAN (human, UniProt P10145 28-99); experiment: yeast surface display FACS
T19 sequence: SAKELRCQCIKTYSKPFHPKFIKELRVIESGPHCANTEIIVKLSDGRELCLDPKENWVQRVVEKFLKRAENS

CCL17_HUMAN = molecular target: T20, CCL17_HUMAN (human, UniProt Q92583 24-94); experiment: yeast surface display FACS
T20 sequence: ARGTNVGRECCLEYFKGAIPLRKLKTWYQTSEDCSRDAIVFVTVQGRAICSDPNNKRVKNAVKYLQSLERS

CCL5_HUMAN [11] = molecular target: T2, CCL5_HUMAN; experiment: yeast surface display FACS; remark: listed apart in the source
P1096_IXORI [12] = molecular target: T6, P1096_IXORI; experiment: BLI
P1127_IXORI [13] = molecular target: T8, P1127_IXORI; experiment: BLI
P1132_IXORI [14] = molecular target: T9, P1132_IXORI; experiment: BLI
P1166_IXORI [15] = molecular target: T10, P1166_IXORI; experiment: BLI
P1134_IXORI [16] = molecular target: T12, P1134_IXORI; experiment: BLI
P1095_IXORI [17] = molecular target: T13, P1095_IXORI; experiment: BLI
P1080_IXORI [18] = molecular target: T14, P1080_IXORI; experiment: BLI
P1156_IXORI [19] = molecular target: T4, P1156_IXORI; experiment: BLI
P1168_IXORI [20] = molecular target: T16, P1168_IXORI; experiment: BLI

B1: P1215_AMBPA (other)
chain: KTDTKNAAGELPPKVVIPGCEDPATTKAPLPDEPPYYGITIDKDGCQRKVLGSSQRQQRKVQNGRKLDGKKRGRRPVFVDLELTVDCKRKCNGTYSQLPDGENCLVSDGYPYGRWGTIKGGCYQGNCSSGQCHRGEKKVNCYLPKNITNDVPKSLNLAE
binding result (CCL18_HUMAN): binds | binding result (CCL5_HUMAN [1]): binds | binding result (CCL11_HUMAN): binds | binding result (CXCL12_HUMAN): binds

B2: P974_AMBCA (other)
chain: ENTQQEEQDYDYGTDTCPFPVLANKTNKAKFVGCHQKCNGGDQKLTDGTACYVVERKVWDRMTPMLWYECPLGECKNGVCEDLRKKEDCRKGNGEEK
Kd (CCL16_HUMAN): 11 nM

B3: P546_AMBCA (other)
chain: ENTQQEEEDYDYGTDTCPFPVLANKTNKAKFVGCHQKCNGGDQKLTDGTACYVVERKVWDRMTPMLWYSCPLGECKNGVCEDLRKKEECRKGNGEEK
Kd (CCL16_HUMAN): 6.7 nM

B4: CXCL7_HUMAN (ligand)
chain: AELRCMCIKTTSGIHPKNIQSLEVIGKGTHCNQVEVIATLKDGRKICLDPDAPRIKKIVQKKLAGDESAD
binding result (P1156_IXORI [2]): no binding (tested: 300 nM) | binding result (P1229_IXORI): no binding (tested: 300 nM) | binding result (P1096_IXORI [3]): no binding (tested: 300 nM) | binding result (P1172_IXORI): no binding (tested: 300 nM) | binding result (P1127_IXORI [4]): no binding (tested: 300 nM) | binding result (P1132_IXORI [5]): no binding (tested: 300 nM) | binding result (P1166_IXORI [6]): no binding (tested: 300 nM) | binding result (P1170_IXORI): no binding (tested: 300 nM) | binding result (P1134_IXORI [7]): no binding (tested: 300 nM) | binding result (P1095_IXORI [8]): no binding (tested: 300 nM) | binding result (P1080_IXORI [9]): no binding (tested: 300 nM) | binding result (P1174_IXORI): no binding (tested: 300 nM) | binding result (P1168_IXORI [10]): no binding (tested: 300 nM) | binding result (P1162_IXORI): no binding (tested: 300 nM) | binding result (P1128_IXORI): no binding (tested: 300 nM)

B5: P1015_AMBCA (other)
chain: EEAPGPAPGCGEPEPTPPKPRRHGIVTNVNSCNSTILVWNGKEFPALCKVRCPHKSYRVSDFEPCLKFTNRRFLQERKDETPYKCKLGFCRHGTCITSEHSRKVPCKVPADRLDPSE
binding result (CCL20_HUMAN): binds | binding result (CXCL8_HUMAN): binds

B6: P993_AMBPA (other)
chain: HRHYDPNEPCLIAGLKTPRDALPAGCRYDCMIKKNQKLRDGLLCLDVPEKVVKRMVNYLNYSCPLGTCRKGICKRKHRNVRCQKYPVFYMSPPK
binding result (CCL17_HUMAN): binds | binding result (CCL20_HUMAN): binds | binding result (CCL5_HUMAN [11]): binds

B7: P1252_AMBAM (other)
chain: RGGAASVPANASIPGCGDAQTTPAAPEDQPKHYVVYRDGNGCEVKIIGTWMTTEDYNCLPDTFRKNRAPHGKVKLPASCKKTCGNAVQNLKDGTPCRKVFGDLGRRRNLIKNGCLVGACQSGLCVSGNRTISCYIPPNSTDTRATPGSFAE
binding result (CCL17_HUMAN): binds | binding result (CCL20_HUMAN): binds | binding result (CXCL8_HUMAN): binds

B8: CXCL14_HUMAN (ligand)
chain: SKCKCSRKGPKIRYSDVKKLEMKPKYPHCEEKMVIITTKSVSRYRGQEHCLHPKLQSTKRFIKWYNAWNEKRRVYEE
binding result (P1096_IXORI [12]): no binding (tested: 300 nM) | binding result (P1127_IXORI [13]): no binding (tested: 300 nM) | binding result (P1132_IXORI [14]): no binding (tested: 300 nM) | binding result (P1166_IXORI [15]): no binding (tested: 300 nM) | binding result (P1134_IXORI [16]): no binding (tested: 300 nM) | binding result (P1095_IXORI [17]): no binding (tested: 300 nM) | binding result (P1080_IXORI [18]): no binding (tested: 300 nM) | binding result (P1156_IXORI [19]): no binding (tested: 300 nM) | binding result (P1168_IXORI [20]): no binding (tested: 300 nM)

Reference: patent US20240034757A1 (OXFORD UNIVERSITY INNOVATION, published 2024)
